We go through 41 sequences from the nanobody polyreactivity screen of Harvey et al. (2022).

This data set in a line: yeast display, Sf9 membrane polyspecificity reagent, FACS + sequencing; frameworks hold sequencing errors. The method in brief:
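A synthetic nanobody library was expressed on Saccharomyces cerevisiae BJ5465 by galactose induction for 36–48 hours. The library was stained for 1 hour at 4 °C with 10% biotinylated, detergent-solubilized Sf9 membrane reagent and enriched with streptavidin microbeads before FACS. Low and high (top ~1%) gates were set on anti-HA fluorescence for expression and streptavidin fluorescence for reagent binding, and each polyreactivity label reflects the gate of origin.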
Regarding “QVQLVESGGGLVQAGGSLRLSCAASVSTFGDYTMGWYRQAPGKERELVAAITLTGGSTYYADSVKGRFTISRDNAKNTVYLQMNSLKPEDTAVYYCNTDVIRWVGGTWHRYYYWGQGTQVTVSS”, the “polyreactivity (PSR sort gate)” value is given as “low polyreactivity”.

On to “QVQLVESGGGLVQAGGSLRLSCAASVSTFQGYSMGWYRQAPGKERELVAAITTDGDSTYYADSVKGRFTISRDNAKNTVYLQMNSLKPEDTAVYYCAADQDGRWEGSSDPGDSWGQGTQVTVSS”, for which the “polyreactivity (PSR sort gate)” value is reported as “low polyreactivity”.

Take “QVQLVESGGGLVQAGGSLRLSCAASVSTFVRYAMGWYRPAPGKDRELVAAIDGGGTTKYADSVKGRFTISRDNAKNTVYLQMNSLKTEDTAVYYCAADQVWGYDSWGQGTQVTVSS”: the “polyreactivity (PSR sort gate)” value was “low polyreactivity”.

Turning to “QVQLVESGGGLVQAGGSLRLSCAASVSTFYSYAMGAYRKAPGKERELVATISTRGGSTYYADSVKGRFTISRDNAKNTVYLHMNSLKPEDTAVYYCNVRLEYRYYRGDYWGHGTQVTVSS”, the “polyreactivity (PSR sort gate)” value was “high polyreactivity”.

In the case of “QVQLVESGGGLVQAGGSLRLSCAASVYTFKSYAMGWYRQAPGKERELVASISNDGSTNYADSVKGRFTISRDNAKNTVYLQMNSLKPEDTAVYYCNADFYDAPSQWARTGFDYWGQGTQVTVSS”, the “polyreactivity (PSR sort gate)” value is recorded as “low polyreactivity”.

Regarding “QVQLVESGGGLVQAGGSLRLSCAATGFTFRTYAMGWYRQAPGKERELVAAITVSGGTYYADSVKGRFTITRDNAKNSFYFQMISLKPEDTAVYYCTAKRFRTGFDYWGQGTQVTVSS”, the “polyreactivity (PSR sort gate)” value is “low polyreactivity”.

Regarding “QVQLVESGGGLVQAGGSLRLSCAATGGIFGYYSMGWYRQSPGKESELVAAINYSGGSTYYADSVKGRFTISRDNAKNTVYLQMNSLKPEDTAVYYCNAVVRDYTFRYYYWGQGTQVTVSS”, the “polyreactivity (PSR sort gate)” value is “low polyreactivity”.

“QVQLVESGGGLVQAGGSLRLSCAATGGLFNVYVMGWYRQAPGKERELVAAITWRGGSTYYADSVKGRFTISRDNAKNTVYLQMNSLKPEDTAVYYCNADAPFQSSSDGYQVEYWGQGTQVTVSS”: the “polyreactivity (PSR sort gate)” value is reported as “low polyreactivity”.

With “QVQLVESGGGLVQAGGSLRLSCAATGIIFGHYAMGWYRQAPGKERELVAAITSGGRTYYADSVKGRFTISRDNAKNTVYLQMNSLKPEDTAVYYCNVDQGYQGYLRIFDYWGQGTQVTVSS”, the “polyreactivity (PSR sort gate)” value is “low polyreactivity”.

In the case of “QVQLVESGGGLVQAGGSLRLSCAATGIIFTGKSMGWYRQAPGTERELVASITSGDTTNYADSVKGRFTISRDNAKNTVYLQMNSLKPEDTAVYSCAKELQVRQGGDYWGQGTQVTVSS”, the “polyreactivity (PSR sort gate)” value was “low polyreactivity”.

For the sequence “QVQLVESGGGLVQAGGSLRLSCAATGIILGPYAMGWYRPAPGKERELVAAISWRGGSTYNADSVKGRFTISRDNAKNTVYLQMNSLKPEDTAVYYCATASRTSRTGWAGYYCGQGTQVTVSS”, the “polyreactivity (PSR sort gate)” value is reported as “high polyreactivity”.

For “QVQLVESGGGLVQAGGSLRLSCAATGITFEGYAMGWYRQAPGKERELVAAIRSSGTSTYYADSVKGRFTISRDNAKNTVYLQMNSLKPEDTAVYYCNRARSSSRYDYCGQGTQVTVSS”, the “polyreactivity (PSR sort gate)” value is “low polyreactivity”.

For “QVQLVESGGGLVQAGGSLRLSCAATGITFTRYAMGWYRQAPGKEREFVAAIRRSGGNTYYADSVKGRFTISRDNAKNTVYILMNSLKPEDTAVYYCAASFRKTSPTRLVDYWGQGTQVTVSS”, the “polyreactivity (PSR sort gate)” value was “low polyreactivity”.

For “QVQLVESGGGLVQAGGSLRLSCAATGITFYINAMAWYIQAPGKESEFVAAIDFNTGDTYYADSVKGRFTISRDTSKNTVYLEMNRLKPEDTAVYYCAADVGYWYGYYYIYDFWAQGTQVTVSS”, the “polyreactivity (PSR sort gate)” value is on record as “high polyreactivity”.

With “QVQLVESGGGLVQAGGSLRLSCAATGLFDVYAMGGYRQAPRKERELVAAISSDGSTYYADSVKGRFTISRDNAKNTVYLQMNSLKPEDTAVYYCNADTSGSPYLQGYVGYGYWGQGTQVTVSS”, the “polyreactivity (PSR sort gate)” value is “low polyreactivity”.

In the case of “QVQLVESGGGLVQAGGSLRLSCAATGLIFGWYAMGWYRQAPGKERELVAAISYSGGRTYYADSVKGRFTISRDNAKNTVYLQMNSLKPEDSAVYYCAAIVLQLRGRGYEYWGQGTQVTVSS”, the “polyreactivity (PSR sort gate)” value is listed as “high polyreactivity”.

Take “QVQLVESGGGLVQAGGSLRLSCAATGRIFGGYPMGWYRQAPGKERELVAVISGRGGSTYYADSVKGRFTISRDNAKNTVYLQMNSLIPEDTAVYYCAAVGYYAWTFGYDYWGQGTQVTVSS”: the “polyreactivity (PSR sort gate)” value is “high polyreactivity”.

As for “QVQLVESGGGLVQAGGSLRLSCAATGRIFLKYTMGWYRQAPGKERELVAAISRGRSTYYADSVKGRFTISRDNAMNTVYLQMNSLKPEDTAVYYFAATSYRRTGYYYWGQGTQVTVSS”, the “polyreactivity (PSR sort gate)” value is given as “high polyreactivity”.

In the case of “QVQLVESGGGLVQAGGSLRLSCAATGRIFYGYTMGWYRQPPGKERELVAAINFNAGRTYYADSVKGRFTISRDNAKNTVYLQMNSLKPEDTAVYYCAAEGRFGRKYGYWGQGTQVTVSS”, the “polyreactivity (PSR sort gate)” value is reported as “low polyreactivity”.

Take “QVQLVESGGGLVQAGGSLRLSCAATGRTFLYNAMGWYRQAPGKERELVAAISFDDGSTYYADSVKGRFTISRDNAKNTVYLQMNSLKPEDPAVYYCAAEYLYVGDSQAYNQYEYWGQGTQVTVSS”: the “polyreactivity (PSR sort gate)” value is reported as “low polyreactivity”.

For the sequence “QVQLVESGGGLVQAGGSLRLSCAATGRTFVSNAMGWYRQAPGKERELVAAISSSTGSTYYADSVKGRFTISRDNAKNTVYLQMNSLKPEDTAVYYCAAYLLGRSPYDYWGQGTQVTVSS”, the “polyreactivity (PSR sort gate)” value is “low polyreactivity”.

For “QVQLVESGGGLVQAGGSLRLSCAATGSIFNYYAMGWYRQAPGKERELVATISRGGRTNYADSVKGRFTISRDNAKNTVYLQMNRLKAEETAVYYCAADRYYTYNVYYFSSFVYWGHGTQVTVSS”, the “polyreactivity (PSR sort gate)” value is “high polyreactivity”.

As for “QVQLVESGGGLVQAGGSLRLSCAATGSIFRYYAMGWYRQAPGKERELVAAISWSGGSTYYSDSVKGRFTISRDNAKNTVYLQMNSLKPEDTAVYYCNVKRYGGRSDYWGQGSQVTVSS”, the “polyreactivity (PSR sort gate)” value is on record as “high polyreactivity”.

Regarding “QVQLVESGGGLVQAGGSLRLSCAATGSIFYGNAMGWYRQAPGKERELVAAISWGAGSTYYADSVKGRFTISRDNAKNTVYLQMNSLKPEDTAVYYCNTLQITGWYDYWGQGTQVTVSS”, the “polyreactivity (PSR sort gate)” value is reported as “high polyreactivity”.

For “QVQLVESGGGLVQAGGSLRLSCAATGSIFYVNAMGWYRQAPGKERELVAVNADSVKGRFTISRDNAKNTVYLQMNSLKPEDTAVYYCAAGVNSTTRIYDYWGQGTQVTVSS”, the “polyreactivity (PSR sort gate)” value is reported as “low polyreactivity”.

As for “QVQLVESGGGLVQAGGSLRLSCAATGSNFINYAMGWYRQAPGKERELVAAYADSVKGRFTISRDNAKNTVYLQMNSLKPEDTAVYYCNAVTGEWGQGTQVTVSS”, the “polyreactivity (PSR sort gate)” value was “low polyreactivity”.

Regarding “QVQLVESGGGLVQAGGSLRLSCAATGSTFAHNSMGWYRQAPGKESQFVAAISARGGMTYYADSVKGRFTISRDYAKNTVYLQMNSLKPEDTAVYYCAAVFGDYWSSQWSYAYGYWGQGTQVTVSS”, the “polyreactivity (PSR sort gate)” value was “high polyreactivity”.

Take “QVQLVESGGGLVQAGGSLRLSCAATGSTFAVYSMGWYRQAPGKELELVATIRRNGGSTYYADSVKGRFTISRDNAKNTVYLQMNSLQPEDTAVYYCAARSRKRWGYNYWGQGTQVTVSA”: the “polyreactivity (PSR sort gate)” value is given as “high polyreactivity”.

Turning to “QVQLVESGGGLVQAGGSLRLSCAATGSTFDDNVMGWYRQAHGKVRELVAAITTSGGSTFYADSVKWRFTISRDNAKNTVYLQMNSLKPEDTAVYYCNAVYFGLWGYYARRSYNYWGQGTQVTVSS”, the “polyreactivity (PSR sort gate)” value is given as “low polyreactivity”.

As for “QVQLVESGGGLVQAGGSLRLSCAATGSTFLRNAIGWYRQAPGTERELVATITNGGSTYYADSVKGRFTISRDNAKNTVYLQMNSLKPEDTAVYYCATLSSYWSWLRYGYGYWGQGTQVTVSS”, the “polyreactivity (PSR sort gate)” value is recorded as “low polyreactivity”.

On to “QVQLVESGGGLVQAGGSLRLSCAATGTTFHYYAMGWYRQAPGKERELVASITRSGGRTYYADSVKGRFTISRDNAKNTVYLQMNSLKPEDTAVYYCAARSYRRTSYDYPSNPNYEYYYWGQGTQVTVSS”, for which the “polyreactivity (PSR sort gate)” value is listed as “high polyreactivity”.

For the sequence “QVQLVESGGGLVQAGGSLRLSCAATVSIFDRNAMGWYRQAPGKERELVAAISSVGSTNYADSVKGRFTISRDNAKNTVYLQMNSLKPEDTADYYCAAENEFIPSLFDYWGQGTQVTVSS”, the “polyreactivity (PSR sort gate)” value is reported as “low polyreactivity”.

On to “QVQLVESGGGLVQAGGSLRLSCAATVSTIKTYATMGLYRQAPWTERELVAAITSGSSTNYADSVKGRFTISRDNAKNTVYLQMNSMKPEDTAVYYCAADDYYNWYLGEPGDYWGQGTQVTVSS”, for which the “polyreactivity (PSR sort gate)” value is recorded as “low polyreactivity”.

On to “QVQLVESGGGLVQAGGSLRLSCAAWSIFYLNAMGWNRQAPGKERELDAAISSAGSTYYADSVKGRFTISRDNAKNTFYLQMNSLKPEDTAVYYCAAYWYDSPGVTEIWYDYWGQGTQVTVSS”, for which the “polyreactivity (PSR sort gate)” value is “low polyreactivity”.

As for “QVQLVESGGGLVQAGGSLRLSCAAYGFIFTRYAMGWSRQAPGKERELVAAISSSGGSTSYADSVKGRFTISRDNAKNTVYFQMNSLKPEDTAVYYCAARGYRLARYRSYDYWGQGTQVTVSS”, the “polyreactivity (PSR sort gate)” value is on record as “high polyreactivity”.

Turning to “QVQLVESGGGLVQAGGSLRLSCAAYGFTFKYYVMGWYRQAPGKERELVASISKRGGSTRYADSVKGRFTISRDNAKNTVYLQMNSLKPEDTAVYYCAAAFVRPPPYVGYSRFYYWGQGTQVTVSS”, the “polyreactivity (PSR sort gate)” value was “high polyreactivity”.

For the sequence “QVQLVESGGGLVQAGGSLRLSCAAYGFTFVDFVMGWSIQAPGKERELVAAITTSGTRTSYADSVKGRFTISRDNAKNTVYLQLNSLKPEDTAVYYCNADHKSIYPKYRGRFYYWGQGTQVTVSS”, the “polyreactivity (PSR sort gate)” value is “high polyreactivity”.

Consider “QVQLVESGGGLVQAGGSLRLSCAAYGIIFRRNAMGWYRQAPGKERELVAAISWSGGTTYYADSVKGRFTISRDNAKYTVYLQIISLKPEDTAVYYCAAGLISRPYGYDYWGQCTQVTVSS”, for which the “polyreactivity (PSR sort gate)” value is on record as “high polyreactivity”.

Consider “QVQLVESGGGLVQAGGSLRLSCAAYGIIFWINSMGRYRPAPGKEREVVAAITSGGTTYYADSVKGRFTISRDNGKNTVYLQMNILKPEDTAVYYCAARVRGARDYYWGQGTQVTVSS”, for which the “polyreactivity (PSR sort gate)” value was “high polyreactivity”.

As for “QVQLVESGGGLVQAGGSLRLSCAAYGIIFYLYVMGWYRQAPGKERELVAVISYSGDDTYYADSVKGRFTISRDNAKNTVYLQMNSLKPEDTAVYYCAADYYYVYSSFGHYYWGQGTQVTVSS”, the “polyreactivity (PSR sort gate)” value is on record as “low polyreactivity”.

Consider “QVQLVESGGGLVQAGGSLRLSCAAYGLIFPVYAMGWYRQAPGKEREFVASIWRGGTTYYADSVKGRFTISRDNAKNTVYLQMNRLKPEDTAVYYCAARYYPRGLVFPFTKYDYWGQGTQVTVSS”, for which the “polyreactivity (PSR sort gate)” value is given as “high polyreactivity”.
